Test results from patent US20230203134A1 (TRUSTEES OF COLUMBIA UNIVERSITY IN THE CITY OF NEW YORK, published 2023).

Experiments:
[1] = target: T1, SARS-CoV-2 N-terminal domain (NTD) (SARS-CoV-2, UniProt P0DTC2 14-290); assay: ELISA (FIG. 10D-F)
T1 construct: range 1-290

[2] = target: T1, SARS-CoV-2 N-terminal domain (NTD); assay: ELISA
[3] = target: T1, SARS-CoV-2 N-terminal domain (NTD); assay: quantitative ELISA
[4] = target: T1, SARS-CoV-2 N-terminal domain (NTD); assay: quantitative ELISA (FIG. 16C, F, I)

B1: monoclonal antibody 5-7 (antibody, V domains shown)
VH: QVQLVQSGAEVKKPGASVKVSCKASGYTFTSYYMHWVRQAPGQGLEWMGVINPSGGSTSYAEKFRGRVTMTRDTSTSTVYMELSSLRSEDTAVYYCARDREPHSDSSGYWDSLKYYYYYALDVWGQGTTVTVSS
VL: AIQLTQSPSSLSASVGDRVTITCRASQGISSYLAWYQQKPGKAPELLIYAASTLQSGVPSRFSGSGSGTDFTLTISSLQPEDFATYYCQQLNTYPFTFGPGTKVDIK
notes: also called mAb 5-7; antibody number 5-7
[1]
  binding result: binds

B2: monoclonal antibody 2-30 (antibody, V domains shown)
VH: QVQLVESGGGVVQPGRSLRLSCAASGFTFSSYTMHWVRQAPGKGLEWVAAISYDGNNKYYADSVKGRFTISRDNSKNTLYLQMNSLRAEDTAVYYCARSILYGGGMDVWGQGTTVTVSS
VL: DIQLTQSPSSLSASVGDRVTITCRASQGISSYLAWYQQKPGQAPKLLIYAASTLQSGVPSRFSGSGSGTDFTLTISSLQPEDFATYYCQQLNSYPLTFGGGTKVEIK
notes: also called mAb 2-30; antibody number 2-30
[2]
  binding result: no binding

B3: monoclonal antibody 4-18 (antibody, V domains shown)
VH: QVQLVESGGGVVQPGRSLRLSCAASGFTFSSYGMHWVRQAPGKGLEWVAVISYDGSNKHYADSVKGRFTISRDNSKNTLYLQMNSLRAEDTAVYYCAKDSGYNYGYSWFDPWGQGTLVTVSS
VL: SYELTQPPSVSVSPGQTARITCSADALAKQYAYWYQQKPGQAPVLVIYKDSERPSGIPERFSGSSSGTTVTLTISGVQAEDEADYYCQSTDNSGTYPNWVFGGGTKLTVL
notes: also called mAb 4-18; antibody number 4-18
[1]
  binding result: binds

B4: monoclonal antibody 2-51 (antibody, V domains shown)
VH: QVQLVQSGAEVKKPGASVKVSCKVSGYTLIELSMHWVRQAPGKGLEWMGGFDPEDVETIYAQQFQGRVTMTEDTSTDTAYMELSSLRSEDTAVYYCATGWAYKSTWYFGYWGQGTLVTVSS
VL: QSALTQPPSASGSPGQSVTISCTGTSSDVGGYNYVSWYQQHPGKAPKLMIYEVSKRPSGVPDRFSGSKSGNTASLTVSGLQAEDEADYYCSSYAGSRMGFGGGTKLTVL
notes: also called mAb 2-51; antibody number 2-51
[2]
  binding result: no binding

B5: monoclonal antibody 2-4 (antibody, V domains shown)
VH: QVQLVQSGAEVKKPGASVKVSCKASGYTFTGYYMHWVRQAPGQGLEWMGWINPNSGGTNYTQMFQGRVTMTRDTSISTAYMEVSRLRSDDTAVYYCARDRSWAVVYYYMDVWGKGTTVTVSS
VL: QSALTQPPSASGSPGQSVTISCTGTSSDVGGYNYVSWYQQHPGKAPKLMIYEVSKRPSGVPDRFSGSKSGNTASLTVSGLQAEDEADYYCSSYAGSNNLVFGGGTKLTVL
notes: also called mAb 2-4; antibody number 2-4
[3]
  binding result: no binding

B6: monoclonal antibody 2-17 (antibody, V domains shown)
VH: QVQLVQSGAEVKKPGSSVKVSCKASGGTFSSYAISWVRQAPGQGLEWMGGNIPIFGTANYAQKFQGRVTITADESTSTAYMELSSLRSEDTAVYYCARGVGYRGVIPLNWFDPWGQGTVVTVSS
VL: EIVMTQSPATLSVSPGERATLSCRASQSVSSDLAWYQHKPGQAPRLLIYGASTRATGIPVRFSGSGSGTEFTLTISSLQSEDFAVYYCQQYNNWPPFTFGGGTKVEIK
notes: also called mAb 2-17; antibody number 2-17
[4]
  binding result: binds

B7: monoclonal antibody 2-38 (antibody, V domains shown)
VH: EVQLVESGGGLVKPGGSLRLSCAASGFTFSSYSMNWVRQAPGKGLEWVSSISSSSSYIYYADSVKGRFTISRDNAKNSLYLQMNSLRAEDTAVYYCTRAGWELRLDAFDIWGQGTMVTVSS
VL: SSELTQDPAVSVALGQTVRITCQGDSLRSSYASWYQQKPGQAPILVIYDKNNRPSGIPDRFSGSSSGNTASLTITGAQAEDEADYYCNSRDSSGILFGGGTKLTVL
notes: also called mAb 2-38; antibody number 2-38
[3]
  binding result: no binding

B8: monoclonal antibody 1-20 (antibody, V domains shown)
VH: EVQLVESGGGLIQPGGSLRLSCAASGLTVSSNYMSWVRQAPGKGLEWVSVIYSGGSTFYADSVKGRFTISRDNSKNTLYLQMNSLRAEDTAVYYCARDLFYYGMDVWGQGTTVTVSS
VL: DIQLTQSPSFLSASVGDRVTITCRASQGISSYLAWYQQKPGKAPKLLIYAASTLQSGVPSRFSGSGSGTEFTLTISSLQPEDFATYYCQQLNSYPCFGPGTKVDIK
notes: also called mAb 1-20; antibody number 1-20
[3]
  binding result: no binding

B9: monoclonal antibody 2-43 (antibody, V domains shown)
VH: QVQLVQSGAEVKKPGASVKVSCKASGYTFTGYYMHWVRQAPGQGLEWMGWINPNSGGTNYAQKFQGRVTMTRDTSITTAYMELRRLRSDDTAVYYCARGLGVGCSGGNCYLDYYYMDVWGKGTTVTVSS
VL: QSALTQPASVSGSPGQSITISCTGTSSDVGGYNYVSWYQQHPGKAPKLMIYDVSKRPSGVSNRFSGSKSGNTASLTISGLQAEDEGDYYCSSYTSSSTWVFGGGTKLTVL
notes: also called mAb 2-43; monoclonal Ab 2-43
[2]
  binding result: no binding

B10: monoclonal antibody 2-15 (antibody, V domains shown)
VH: QVQLVQSGAEVKKPGASVRVSCKASGYTFTGYYMHWVRQAPGQGLEWMGWINPISDGTNYAQKFQGWVTMTRDTSISTVYMELSRLRSDDTAVYYCARGGSRCSGGNCYGWAYDAFDIWGQGTMITVSS
VL: QSALTQPASVSGSPGQSITISCTGTSSDVGGYNFVSWYQQHPGKAPKLMIYDVSKRPSGVSNRFSGSKSGNTASLTISGLQAEDEADCYCSSYTSSSTFVFGTGTKVTVL
notes: also called mAb 2-15; antibody number 2-15
[3]
  binding result: no binding

B11: monoclonal antibody 1-68 (antibody, V domains shown)
VH: QVQLVQSGAEVKKPGASVKVSCKVSGYTLIELSMHWVRQAPGKGLEWMGGFDPEDAETIYAQKFQGRVTMTEDTSTDTAYMELSSLRSEDTAVYYCATGWAVAGSSDVWYYYYGMDVWGQGTTVTVSS
VL: QSALTQPPSVSGSPGQSVTISCTGTSSDVGSYNRVSWYQQPPGTAPKLMIYEVSNRPSGVPDRFSGSKSGNTASLTISGLQAEDEADYYCSSYTSSSTYVFGTGTKVTVL
notes: also called mAb 1-68; antibody number 1-68
[1]
  binding result: binds

B12: monoclonal antibody 1-87 (antibody, V domains shown)
VH: QVQLVQSGAEVKKPGASVKVSCKVSGYTLIELSMHWVRQAPGKGLEWMGGFDPEDAETIYAQKFQGRVTMTEDTSTDTAYMELSSLRSEDTAVYYCATGIAVIGPPPSTYYYYGMDVWGQGTTVTVSS
VL: QSALTQPASVSGSPGQSITISCTGTSSDVGGYNYVSWYQQHPGKAPKLMIYDVSKRPSGVSNRFSGSKSGNTASLTISGLQAEDEADYYCSSYTSSSTYVFGTGTKVTVL
notes: also called mAb 1-87; antibody number 1-87
[4]
  binding result: binds

B13: monoclonal antibody 2-7 (antibody, V domains shown)
VH: QITLKESGPTLVKPTQTLTLTCTFSGFSLSTSGVGVGWIRQPPGKALEWLALIYWDDDKRYSPSLKSRLTITKDTSKNQVVLTMTNMDPVDTATYYCAHHKIERIFDYWGQGTLVTVSS
VL: QSALAQPASVSGSPGQSITISCTGTSSDVGAYNYVSWYQQHPGKAPKLMIYDVSKRPSGVSNRFSGSKSGNTASLTISGLQAEDEADYYCSSYTTSSTVFGGGTKLTVL
notes: also called mAb 2-7; antibody number 2-7
[3]
  binding result: no binding

B14: monoclonal antibody 4-20 (antibody, V domains shown)
VH: QVQLLQSGAEVKKPGASVKVSCKASGYSFTSYYMHWVRQAPGQGLEWMGIINPSGGGTTYAQKFQGRVTMTRDTSTSTVYMELSSLRSEDTAVYYCARPGGGSYQEFDYWGQGTLVTVSS
VL: DIQMTQSPSSLSASVGDRVTITCRASQSISSYLNWYQQKPGKAPKLLISAASSLQSGVPSRFSGSGSGTDFTLTISSLQPEDFATYYCQQSYNTLQVTFGGGTKVEIK
notes: also called mAb 4-20; antibody number 4-20
[2]
  binding result: no binding
